US20200055896A1, “SUBSTRATES RECOGNIZED BY FIBROBLAST ACTIVATION PROTEIN (FAP) AND METHODS OF USING THE SAME” (GENENTECH, INC., priority 2017, published 2020)
No end group written: not given here.

Key:
recombinant human FAP = molecular target: T1, recombinant human FAP (Homo sapiens, UniProt Q12884); assay: FRET-quench assay: probe cleavage by recombinant human FAP; type: biochemical; conditions: 1 nM enzyme
T1 construct: (residues L26-D760 and L26-D761, respectively); octa-His (N); made in house; host or cells: transiently transfected CHO cells (conditioned media)
T1 sequence (Q12884 26-760): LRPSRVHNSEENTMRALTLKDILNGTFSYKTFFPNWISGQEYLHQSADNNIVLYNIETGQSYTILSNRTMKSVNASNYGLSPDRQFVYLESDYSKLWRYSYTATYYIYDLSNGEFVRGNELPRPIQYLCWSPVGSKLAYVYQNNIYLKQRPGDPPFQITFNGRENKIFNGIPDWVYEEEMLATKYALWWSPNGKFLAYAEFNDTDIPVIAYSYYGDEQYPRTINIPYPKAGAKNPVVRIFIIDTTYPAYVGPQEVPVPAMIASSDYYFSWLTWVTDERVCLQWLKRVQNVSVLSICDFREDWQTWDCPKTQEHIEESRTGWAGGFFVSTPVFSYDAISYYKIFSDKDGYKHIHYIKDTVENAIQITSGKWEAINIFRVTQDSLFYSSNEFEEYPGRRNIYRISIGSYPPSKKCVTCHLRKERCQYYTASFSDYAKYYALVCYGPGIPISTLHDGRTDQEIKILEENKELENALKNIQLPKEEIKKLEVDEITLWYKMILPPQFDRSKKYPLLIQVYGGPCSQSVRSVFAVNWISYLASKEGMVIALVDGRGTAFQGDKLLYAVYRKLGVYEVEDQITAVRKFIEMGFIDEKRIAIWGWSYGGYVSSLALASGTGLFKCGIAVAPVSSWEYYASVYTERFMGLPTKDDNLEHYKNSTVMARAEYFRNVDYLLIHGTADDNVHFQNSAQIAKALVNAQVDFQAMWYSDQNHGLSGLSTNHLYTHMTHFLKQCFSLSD
Text: Human prolyl oligopeptidase (PREP, 4308-SE), DPPIV (1180-SE), DPP9 (5419-SE), and DPPII/DPP7 (3438-SE) proteins were purchased from R&D Systems. Human DPP8 (BML-SE527) protein was purchased from Enzo Life Sciences. N-terminal octa-His-tagged human and mouse FAP proteins containing the extracellular domain (residues L26-D760 and L26-D761, respectively) were purified from the conditioned media of transiently-transfected CHO cells, by immobilized metal affinity chromatography (IMAC), followed by size exclusion chromatography (SEC).
(§1) Peptides of the region flanking the C-terminal human FGF21 cleavage site (VGPSQG) or a variant with D-alanine at P2 (VaPSQG) were synthesized (Anaspec, Inc.), containing an amine-terminal donor (HyLite Fluor 488 or Cy5.5 for aP NIRF) and a dark quencher-acceptor (QXL 520 or QSY21 for aP NIRF) conjugated to a supplementary C-terminal lysine. ANPFAP (Bioconjugate Chem 23:1704-11) and aP NIRF were synthesized by CPC Scientific (Sunnyvale, Calif.). Assays were conducted at 37° C. in 50 mM HEPES (pH 7.2), 150 mM NaCl, 1 mM EDTA, 0.1 mg/ml BSA. The excitation/emission wavelengths of cleaved peptide are 490/520 nm or 675/695 nm for ANPFAP and aP NIRF. Fluorescence was monitored on a Tecan M1000 Pro plate reader in kinetic mode. Except where indicated otherwise, measurements of serum or plasma FAP activity were performed with the peptide substrate concentration at 6 μM and a 10-fold dilution of serum or plasma in assay buffer.

[1] = molecular target: T2, FAP endopeptidase activity in the plasma (Mus musculus, UniProt P97321); assay: FRET-quench assay: probe cleavage in mouse plasma (Fap WT, heterozygous, KO); type: biochemical, mice
T2 construct: the extracellular domain encoding the active enzyme can be shed from the cell surface; from tissue; host or cells: mouse plasma (C57BL/6 background; Fap +/+, +/-, -/-)
T2 sequence (P97321 24-761 limits assumed): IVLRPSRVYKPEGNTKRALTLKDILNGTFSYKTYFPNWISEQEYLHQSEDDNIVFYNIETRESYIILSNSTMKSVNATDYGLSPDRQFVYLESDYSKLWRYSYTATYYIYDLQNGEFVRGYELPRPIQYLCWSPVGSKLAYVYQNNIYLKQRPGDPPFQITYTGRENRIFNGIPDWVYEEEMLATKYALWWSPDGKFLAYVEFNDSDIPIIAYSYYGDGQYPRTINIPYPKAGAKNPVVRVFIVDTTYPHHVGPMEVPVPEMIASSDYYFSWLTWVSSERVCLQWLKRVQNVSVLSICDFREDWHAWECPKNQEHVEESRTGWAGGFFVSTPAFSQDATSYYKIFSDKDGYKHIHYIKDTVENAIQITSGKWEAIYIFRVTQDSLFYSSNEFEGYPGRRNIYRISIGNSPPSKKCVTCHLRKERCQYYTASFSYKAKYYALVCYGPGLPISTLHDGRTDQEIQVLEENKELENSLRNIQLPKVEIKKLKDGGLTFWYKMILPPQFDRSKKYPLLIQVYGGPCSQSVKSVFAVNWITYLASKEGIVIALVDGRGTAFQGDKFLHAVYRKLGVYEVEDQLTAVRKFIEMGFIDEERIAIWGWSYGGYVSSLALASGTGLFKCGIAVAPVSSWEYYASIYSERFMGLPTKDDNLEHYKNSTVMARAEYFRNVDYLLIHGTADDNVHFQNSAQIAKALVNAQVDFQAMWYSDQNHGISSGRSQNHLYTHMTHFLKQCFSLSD
Description: Mouse plasma samples were prepared in K3-EDTA MiniCollect tubes (Greiner Bio-One, 450475) and frozen immediately at −80° C. prior to analysis. Human serum samples were obtained from healthy donors or purchased from Discovery Life Sciences, Inc. (Los Osos, Calif.).
as §1

Row | Substance | cleavage by recombinant human FAP (recombinant human FAP) | probe cleavage activity in plasma ([1]; plasma from Fap heterozygous mice, 3 μM peptide) | probe cleavage signal in plasma ([1]; plasma from WT (Fap+/+) mice, 3 μM peptide) | probe cleavage activity in plasma ([1]; plasma from homozygous Fap KO mice, 3 μM peptide) | probe cleavage in plasma ([1]; Fap KO plasma, plasma diluted 10-fold) | probe cleavage signal in plasma ([1]; WT plasma, plasma diluted 10-fold) | probe cleavage signal in plasma ([1]; heterozygous plasma, plasma diluted 10-fold)
1 | GP probe: human FGF21 cleavage-site peptide VGPSQG with amine-terminal HyLite Fluor 488 donor and QXL 520 quencher on supplementary C-terminal lysine ({HyLite Fluor 488}-VGPSQGK(QXL 520)) | readily cleaved | approximately half the activity as that from WT mice | strong signal | even lower, but significant activity | – | – | –
2 | aP probe: FGF21-based peptide VaPSQG (D-alanine at P2) with HyLite Fluor 488 donor and QXL 520 quencher | clearly detectable | – | – | – | no cleavage | clear signal | intermediate
